Target: the molecule itself
Assay: NMR relaxation

B1: Smad5 MH1 domain (wild type) (domain or fragment, Homo sapiens)
chain: GPSFTSPAVKRLLGWKQGDEEEKWAEKAVDALVKKLKKKKGAMEELEKALSSPGQPSKCVTIPRSLDGRLQVSHRKGLPHVIYCRVWRWPDLQSHHELKPLDICEFPFGSKQKEVCINPYHYKRVESPVLPP
For B1, the Kd was 8.3 ± 1.5 mM.

— publication PMC7810915 (Computational and Structural Biotechnology Journal, 2019)
